Measured values taken from patent US12649925B2, “Tissue-specific expression and hybrid plant production” (Dow AgroSciences LLC, priority 2013, dated 2026).
Where a chain is given by its changes, count along the chain named.

B1: pDAB112377: Transient construct: ZmUbilv2/AAD1 v3/miR529 perfect target site with miR156 site mutated/ZmPer5 3′UTR (SEQ ID NO:10) (nucleic acid)
DNA: ATGGCTCATGCTGCCCTCAGCCCTCTCTCCCAACGCTTTGAGAGAATAGCTGTCCAGCCACTCACTGGTGTCCTTGGTGCTGAGATCACTGGAGTGGACTTGAGGGAACCACTTGATGACAGCACCTGGAATGAGATATTGGATGCCTTCCACACTTACCAAGTCATCTACTTTCCTGGCCAAGCAATCACCAATGAGCAGCACATTGCATTCTCAAGAAGGTTTGGACCAGTTGATCCAGTGCCTCTTCTCAAGAGCATTGAAGGCTATCCAGAGGTTCAGATGATCCGCAGAGAAGCCAATGAGTCTGGAAGGGTGATTGGTGATGACTGGCACACAGACTCCACTTTCCTTGATGCACCTCCAGCTGCTGTTGTGATGAGGGCCATAGATGTTCCTGAGCATGGCGGAGACACTGGGTTCCTTTCAATGTACACAGCTTGGGAGACCTTGTCTCCAACCATGCAAGCCACCATCGAAGGGCTCAACGTTGTGCACTCTGCCACACGTGTGTTCGGTTCCCTCTACCAAGCACAGAACCGTCGCTTCAGCAACACCTCAGTCAAGGTGATGGATGTTGATGCTGGTGACAGAGAGACAGTCCATCCCTTGGTTGTGACTCATCCTGGCTCTGGAAGGAAAGGCCTTTATGTGAATCAAGTCTACTGTCAGAGAATTGAGGGCATGACAGATGCAGAATCAAAGCCATTGCTTCAGTTCCTCTATGAGCATGCCACCAGATTTGACTTCACTTGCCGTGTGAGGTGGAAGAAAGACCAAGTCCTTGTCTGGGACAACTTGTGCACCATGCACCGTGCTGTTCCTGACTATGCTGGCAAGTTCAGATACTTGACTCGCACCACAGTTGGTGGAGTTAGGCCTGCCCGCTGAGTAGTTAGCTTAATCACCTAGAGCTCGACTCAGGCTGTACTCTCTCTCTTCACAAAGTACTCAGGTAACCTTTAAACTGAGGGCACTGAAGTCGCTTGATGTGCTGAATTGTTTGTGATGTTGGTGGCGTATTTTGTTTAAATAAGTAAGCATGGCTGTGATTTTATCATATGATCGATCTTTGGGGTTTTATTTAACACATTGTAAAATGTGTATCTATTAATAACTCAATGTATAAGATGTGTTCATTCTTCGGTTGCCATAGATCTGCTTATTTGACCTGTGATGTTTTGACTCCAAAAACCAAAATCACAACTCAATAAACTCATGGAATATGTCCACCTGTTTCTTGAAGAGTTCATCTACCATTCCAGTTGGCATTTATCAGTGTTGCAGCGGCGCTGTGCTTTGTAACATAACAATTGTTACGGCATATATCCAA
modifications: expression cassette; (969)..(1333) ZmPer5 3′UTR
B2: pDAB112376: Transient construct: ZmUbilv2/AAD1 v3/WT miR529 target site with miR156 site mutated/ZmPer5 3′UTR (SEQ ID NO:9) (nucleic acid)
DNA: B1 DNA with C937T, T938A
modifications: pDAB112377 expression cassette; (918)..(954) modified tsh4 target site; (969)..(1333) ZmPer5 3′UTR

Experiments:
Maize Immature Embryos [1] = assay: Transient AAD1 expression in immature embryos after particle bombardment, ELISA; type: cell-based, Zea mays; conditions: 24 hours after particle bombardment; co-bombardment plasmid pDAB112378 (artificial miRNA)
Source text: Zea mays embryos from inbred line B104 that express AAD1 mRNAs having miRNA target sites within the mRNA were produced. Control tissues having no miRNA target sites in the AAD1 mRNA, or having no AAD1 gene expression cassette, were also produced. Other control tissues were produced that had only a YFP gene expression cassette (and no AAD1 construct). Preparations of plant transformation DNA molecules constructed as described in EXAMPLE 2 were delivered into maize B104 immature embryos via particle bombardment transformation.
Plasmid DNAs of pDAB112375, pDAB112376, pDAB112377, pDAB113016, pDAB100286, pDAB112378 and pDAB112330 were isolated and purified from Escherichia coli by standard techniques, and diluted in TE buffer (10 mM Tris HCl plus 1 mM EDTA, pH 8) to 1.0 μg/μL.
Embryo isolation and culture: (Day 1) Surface-sterilized B104 immature ears (10 to 12 days post-pollination) were used for the isolation of embryos. Excised immature embryos from 3 to 4 ears were pooled into 2 mL microfuge tubes containing 2.0 mL liquid medium (LS basal medium (Linsmaier and Skoog, (1965) Physiologia Plantarum 18:100-27) containing CHU N6 vitamins (Chu et al. (1975) Scientia Sinica 18:659-68), 700 mg/L L-Proline, 68.5 gm/L sucrose, 36 gm/L D(+) glucose, and 1.5 mg/L 2,4-D). After embryo isolation, the liquid medium was removed and discarded. Embryos were removed and placed onto plates (40 embryos per plate) containing a semi-solid osmotic medium (MS basal medium (Murashige and Skoog, (1962) Physiologia Plantarum 15:473-497), 2 mg/L Glycine, 500 μg/L Thiamine, 500 μg/L Pyroxidine, 50 μg/L Nicotinic Acid., 120 gm/L sucrose, 100 mg/L myo-inositol, and 2.4 gm/L GELRITE). The embryos were arranged in a […] within the target area for particle bombardment. Three replicate plates were prepared for each construct to be tested. All plates were incubated at 28° C. under continuous low light (50 μEm^−2 sec^−1) for 24 hours prior to particle bombardment.
Coating gold particles with DNA: (Day 2) Tubes of frozen gold particles glycerol stock were thawed on ice for a few minutes, then vortexed for 2 minutes at high speed until a uniform gold suspension was produced. Gold suspension was pipetted into sterile microcentrifuge tubes (50 μL each), with an intermediate vortexing of the particle stock between each tube to maintain a uniform suspension. 2.5 μg each of appropriate plasmid DNAs were included. […]
ELISA quantification of AAD1 and PAT proteins: Enzyme Linked Immunosorbant Assays (ELISAs) were used to measure the production of AAD1 and PAT proteins in maize cells and stably-transformed tissues. […]

Maize Immature Embryos [2] = assay: Selection of Agrobacterium-transformed immature embryos on herbicide-containing medium; type: cell-based, Zea mays; conditions: Selection Medium I containing 100 nM R-Haloxyfop acid
Source text: Agrobacterium-mediated transformation was used to stably integrate a chimeric gene into the plant genome, and thus generate transgenic maize cells, tissues, and plants that produce AAD1 mRNAs having miRNA target sites within the mRNA. Control tissues having no miRNA target sites in the AAD1 mRNA were also produced. Transformed tissues were selected by their ability to grow on Haloxyfop-or Bialaphos-containing medium.
Callus Selection and Regeneration of Transgenic Events: Following the co-cultivation period, embryos were transferred to Resting Medium (4.33 g/L MS salts; 1× ISU Modified MS Vitamins; 30 g/L sucrose; 700 mg/L L-proline; 3.3 mg/L Dicamba in KOH; 100 mg/L myo-inositol; 100 mg/L Casein Enzymatic Hydrolysate; 15 mg/L AgNO3; 0.5 g/L MES (2-(N-morpholino) ethanesulfonic acid monohydrate; PHYTOTECHNOLOGIES LABR.; Lenexa, K S); 250 mg/L Cefotaxime; and 7.0 gm/L agar; at pH 5.8). No more than 36 embryos were moved to each plate. The plates were wrapped with Micropore™ tape and incubated at 27° C. with continuous light at approximately 50 μmol m^−2s^−1 light intensity for 7 to 10 days. […]

Row | Molecule | Mean AAD1 Amount (Maize Immature Embryos [1]) [ng/mL] | fate of transformed embryos on Haloxyfop-containing medium (Maize Immature Embryos [2])
1 | B1 | 249 | grew on Haloxyfop-containing medium and regenerated transgenic plants
2 | B2 | 317 | grew on Haloxyfop-containing medium and regenerated transgenic plants
